From PMC5852159, “Hydrogen peroxide positively regulates brassinosteroid signaling through oxidation of the BRASSINAZOLE-RESISTANT1 transcription factor” (Nature Communications, 2018)

Target: T1, MBP-BZR1 (maltose-binding protein-BRASSINAZOLE-RESISTANT1 fusion) (Arabidopsis thaliana, UniProt Q8S307 1-336)
T1 construct: BRASSINAZOLE-RESISTANT1 (BZR1), Arabidopsis thaliana; full length cDNA without stop codon, recombined into pMAL2CGW (N-MBP); In part of the pull-downs 1 mM H2O2 stood in the buffer, which oxidises BZR1 (mainly at Cys-63); also called recombinant BZR1; source: E. coli, purified (amylose resin); not shown: MBP, N-terminal, kept
T1 sequence (looked up): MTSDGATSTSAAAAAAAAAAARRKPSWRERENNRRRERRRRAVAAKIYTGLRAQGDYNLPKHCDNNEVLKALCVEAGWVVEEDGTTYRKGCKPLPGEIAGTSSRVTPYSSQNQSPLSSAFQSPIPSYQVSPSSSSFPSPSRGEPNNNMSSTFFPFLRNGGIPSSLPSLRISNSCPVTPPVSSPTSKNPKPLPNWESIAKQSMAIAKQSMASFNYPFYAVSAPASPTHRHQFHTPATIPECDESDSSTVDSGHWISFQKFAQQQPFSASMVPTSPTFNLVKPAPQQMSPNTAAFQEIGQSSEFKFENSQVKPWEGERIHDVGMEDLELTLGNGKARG
Assay: pull-down; glutathione beads with 1 µg GST fusion incubated with 1 µg MBP or MBP fusion; 20 mM Tris-HCl pH 7.5, 100 mM NaCl, 1 mM EDTA, with or without 1 mM H2O2, 4 °C, 1 h; washed with 300 mM NaCl, 0.1% Nonidet P-40; blots with anti-MBP and anti-GST
Conditions: both partners purified

B1: GST-TRXh5 (enzyme, Arabidopsis thaliana, UniProt Q39241 1-118, looked up)
chain: MAGEGEVIACHTLEVWNEKVKDANESKKLIVIDFTASWCPPCRFIAPVFAEMAKKFTNVVFFKIDVDELQAVAQEFKVEAMPTFVFMKEGNIIDRVVGAAKDEINEKLMKHGGLVASA
notes: thioredoxin h5 (TRXh5), Arabidopsis thaliana; full length cDNA without stop codon, recombined into pDEST15 (N-GST); also called thioredoxin TRXh5; source: bacteria, purified (glutathione beads); not shown: GST, N-terminal, kept
  binding result: binds
